Experimental data published in US8632989B1, “Mutant insulin degrading enzyme and methods of use” (University of Kentucky Research Foundation, priority 2011, dated 2014).

What was measured:
Assay type in all cases: biochemical
[1] = ATPase activity, Pi release with acid-molybdate; details: 1 mM ATP as substrate
Description: (§1) IDE activity was determined by measuring the increase in fluorescence that occurs when the enzyme cleaves the internally quenched fluorogenic substrate Abz-[…]-EDDnp (SEQ ID NO:3) at the R—K bond (Song et al., Journal of Biologial Chemistry 276, 1152-1155 (2001)). The reaction was followed on a SpectraMax Gemini XS fluorescence plate reader using an excitation and emission wavelengths of 318 nm and 419 nm, respectively. Initial velocities were determined using SoftMax Pro 4.0 and kinetic constants calculated using GraphPad Prism 4.0. ATPase activity was measured by following Pi release with acid-molybdate as described by Harder et al. (Harder et al., Biochemical Journal 298 (Pt 2), 395-401 (1994)).

Abz-GGFLRKHGQ-EDDnp [2] = molecular target: T1, Abz-GGFLRKHGQ-EDDnp (Rattus norvegicus, UniProt P35559); assay: Activation by ATP of Abz-[…]-EDDnp hydrolysis, IDE and ATP binding site mutants; details: 10 μM Abz-GGFLRKHGQ-EDDnp as substrate
T1 construct: hexahistidine (N); made in house; host or cells: Sf9 insect cells (baculovirus, pFastBac HTb)
T1 sequence (P35559 41-1019): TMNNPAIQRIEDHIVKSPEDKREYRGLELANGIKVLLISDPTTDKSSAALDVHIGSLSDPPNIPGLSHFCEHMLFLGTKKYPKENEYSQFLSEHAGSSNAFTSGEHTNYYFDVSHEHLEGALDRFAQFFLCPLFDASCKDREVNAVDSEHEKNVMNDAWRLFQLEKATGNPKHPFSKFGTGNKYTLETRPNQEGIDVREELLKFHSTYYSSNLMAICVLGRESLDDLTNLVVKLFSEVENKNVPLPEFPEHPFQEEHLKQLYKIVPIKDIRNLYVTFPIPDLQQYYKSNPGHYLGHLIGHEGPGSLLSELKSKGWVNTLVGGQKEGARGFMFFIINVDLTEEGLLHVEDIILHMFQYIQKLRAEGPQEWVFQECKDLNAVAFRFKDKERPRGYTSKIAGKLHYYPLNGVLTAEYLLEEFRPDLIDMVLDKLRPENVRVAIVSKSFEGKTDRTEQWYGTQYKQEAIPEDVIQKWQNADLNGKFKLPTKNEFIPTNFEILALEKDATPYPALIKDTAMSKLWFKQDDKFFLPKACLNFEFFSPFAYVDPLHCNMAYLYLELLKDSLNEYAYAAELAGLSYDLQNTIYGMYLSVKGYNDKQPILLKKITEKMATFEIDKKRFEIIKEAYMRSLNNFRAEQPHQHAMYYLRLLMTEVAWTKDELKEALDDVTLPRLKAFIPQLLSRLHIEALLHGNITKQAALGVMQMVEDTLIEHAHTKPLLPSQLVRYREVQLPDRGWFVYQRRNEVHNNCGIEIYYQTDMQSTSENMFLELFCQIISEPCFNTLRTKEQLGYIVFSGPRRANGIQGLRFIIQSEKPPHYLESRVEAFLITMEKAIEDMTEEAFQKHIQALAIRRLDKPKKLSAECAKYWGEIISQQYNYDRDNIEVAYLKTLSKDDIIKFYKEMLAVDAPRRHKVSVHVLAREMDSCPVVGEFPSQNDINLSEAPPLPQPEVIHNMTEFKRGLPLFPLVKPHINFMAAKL
Description: Activity was determined in 50 mM Tris-HCl, pH 7.4 with 10 μM Abz-[…]-EDDnp (SEQ ID NO:3) as substrate at the indicated concentrations of ATP (panel A), PPPi (panel B) or, TNP-ATP (panel C). Each reaction contained 0.5 μg of enzyme.
as §1

Abz-GGFLRKHGQ-EDDnp [3] = assay: Enzyme activity assay, kinetics of IDE and ATP binding site mutants with fluorogenic substrate; details: rat IDE, Abz-GGFLRKHGQ-EDDnp as substrate
Description: Reactions were conducted in 50 mM Tris-HCl, pH 7.4.
as §1

Abz-GGFLRKHGQ-EDDnp [4] = assay: Enzyme activity assay, kinetics of wild type rIDE and distal site mutants with fluorogenic substrate
Description: FIG. 17. Effects of distal site mutations. (A) Comparison of the kinetics of wild type IDE with the distal site mutants. Activity was measured with varying amounts of Abz-[…]-EDDnp (SEQ ID NO:3) substrate as indicated. Either hyperbolic (Michaelis-Menten equation) or sigmoidal curves (Hill equation) were fit to the data. (B) Effect of bradykinin on the activity of wild type IDE and the distal site mutants. (C) Activation of wild type IDE and distal site mutants by ATP. Relative activity is the fold activation above the level of the wild type enzyme alone.
The activity of IDE was measured by following the increase in fluorescence upon hydrolysis at the L-R bond of the fluorogenic peptide Abz-[…]-EDDnp (SEQ ID NO:3) on a SpectraMax Gemini XS fluorescence plate reader using an excitation wavelength of 318 nm and emission wavelength of 419 nm. Reactions were carried out in 200 μl volumes containing 50 mM Tris-HCl, pH 7.4, 1.92 μg of wild type rIDE, 4.6 μg of rIDE-V360S, 4.3 μg rIDE-I374S, or 1.63 μg of rIDE-Y609F. For measurements of activation by bradykinin, IDE activity was determined with 10 μM Abz-[…]-EDDnp (SEQ ID NO:3) as substrate in 50 mM Tris-HCl buffer, pH 7.4. The amount of protein was 0.5 μg for wild type rIDE and 5 μg for each of the IDE distal-site mutants. Data were analyzed using Softmax 4.0 (Molecular Devices) and kinetic parameters calculated with Prism (Graphpad Software). […] Under these assay conditions, both wild type and mutant rIDE are almost completely dimeric.

B1: IDE: Native rat insulin degrading enzyme (SEQ ID NO:1), expressed as hexahistidine fusion protein in Sf9 insect cells (protein, listed as Rattus norvegicus)
chain: MRNGLVWLLHPALPSTLHSILGARPPPVKRLCGFPKQIYSTMNNPAIQRIEDHIVKSPEDKREYRGLELANGIKVLLISDPTTDKSSAALDVHIGSLSDPPNIPGLSHFCEHMLFLGTKKYPKENEYSQFLSEHAGSSNAFTSGEHTNYYFDVSHEHLEGALDRFAQFFLCPLFDASCKDREVNAVDSEHEKNVMNDAWRLFQLEKATGNPKHPFSKFGTGNKYTLETRPNQEGIDVREELLKFHSTYYSSNLMAICVLGRESLDDLTNLVVKLFSEVENKNVPLPEFPEHPFQEEHLKQLYKIVPIKDIRNLYVTFPIPDLQQYYKSNPGHYLGHLIGHEGPGSLLSELKSKGWVNTLVGGQKEGARGFMFFIINVDLTEEGLLHVEDIILHMFQYIQKLRAEGPQEWVFQECKDLNAVAFRFKDKERPRGYTSKIAGKLHYYPLNGVLTAEYLLEEFRPDLIDMVLDKLRPENVRVAIVSKSFEGKTDRTEQWYGTQYKQEAIPEDVIQKWQNADLNGKFKLPTKNEFIPTNFEILALEKDATPYPALIKDTAMSKLWFKQDDKFFLPKACLNFEFFSPFAYVDPLHCNMAYLYLELLKDSLNEYAYAAELAGLSYDLQNTIYGMYLSVKGYNDKQPILLKKITEKMATFEIDKKRFEIIKEAYMRSLNNFRAEQPHQHAMYYLRLLMTEVAWTKDELKEALDDVTLPRLKAFIPQLLSRLHIEALLHGNITKQAALGVMQMVEDTLIEHAHTKPLLPSQLVRYREVQLPDRGWFVYQRRNEVHNNCGIEIYYQTDMQSTSENMFLELFCQIISEPCFNTLRTKEQLGYIVFSGPRRANGIQGLRFIIQSEKPPHYLESRVEAFLITMEKAIEDMTEEAFQKHIQALAIRRLDKPKKLSAECAKYWGEIISQQYNYDRDNIEVAYLKTLSKDDIIKFYKEMLAVDAPRRHKVSVHVLAREMDSCPVVGEFPSQNDINLSEAPPLPQPEVIHNMTEFKRGLPLFPLVKPHINFMAAKL
modifications: hexahistidine tag; wild-type Insulin Degrading Enzyme (IDE) from rat
In the case of B1, the “IDE-dependent ATPase activity” value [1] is reported as “less than 1 nmol/min/mg IDE”, the “activation by ATP” value (Abz-GGFLRKHGQ-EDDnp [2]) is reported as “roughly 150 fold” and the “Hill coefficient” value (Abz-GGFLRKHGQ-EDDnp [3]) is reported as 2.1 ± 0.3. For the same molecule, the Km (Abz-GGFLRKHGQ-EDDnp [3]) was 9.6 ± 0.7 mM, the kcat (Abz-GGFLRKHGQ-EDDnp [3]) was 0.0867 ± 0.0033 s⁻¹ and the Vmax (Abz-GGFLRKHGQ-EDDnp [3]; 50 mM Tris-HCl, pH 7.4) was 47.2 ± 1.7 nmol/min/mg. For the same molecule, the Specific activity (Abz-GGFLRKHGQ-EDDnp [4]; Abz-GGFLRKHGQ-EDDnp substrate) was 8,131 nmol/min/mg, the Km (Abz-GGFLRKHGQ-EDDnp [4]; rat IDE, Abz-GGFLRKHGQ-EDDnp as substrate) was 0.0159 ± 0.00119 mM and the Vmax (Abz-GGFLRKHGQ-EDDnp [4]; rat IDE, Abz-GGFLRKHGQ-EDDnp as substrate, 50 mM Tris-HCl, pH 7.4) was 35.5 ± 11.6 nmol/min/mg. It also gave a Hill coefficient (Abz-GGFLRKHGQ-EDDnp [4]; rat IDE, Abz-GGFLRKHGQ-EDDnp as substrate, listed as Wild Type) of 1.8 ± 0.16 and a Hill coefficient (Abz-GGFLRKHGQ-EDDnp [4]; rat IDE, Abz-GGFLRKHGQ-EDDnp as substrate, listed as wild type enzyme) of 1.80.
